From the supplement of paper PMC12042874
± gives the uncertainty stated by the source.

test: amyloid nucleation score (Sup35N fusion, yeast selection) (log enrichment); library NNK2; higher = more nucleation; inactive = no reads after selection
How it was run: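 Using DiMSum, nucleation scores were taken as the log enrichment of output over input reads, centred on the mode score of non-aggregating sequences. The input and output reads came from Illumina sequencing of plasmid inserts, with sequences under 100 input reads excluded. The yeast were psi-negative, expressed Sup35N fused to peptides of 20 random codons, were induced with 100 μM copper sulfate for 24 hours, and were grown 7 days at 30°C on medium lacking adenine and uracil.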

Compared with YIIFGSRLVDRGSLQ, NPLYEARKRNRLYTFGATRF is higher in amyloid nucleation score: 2.95 ± 0.16 for the first, 3.65 ± 0.084 for the second.

KNDLPRKKVL and HVSKAVNLG are within error of each other in amyloid nucleation score: 0.128 ± 0.4 for the first, 0.52 ± 0.56 for the second.

Compared with FRCLTSSANISISTVWYVGH, GVVGSFPRPTSSRGRLDYCN is lower in amyloid nucleation score: 4.61 ± 0.09 for the first, -0.169 ± 0.55 for the second.

Going from DNLVCCSCSHLIVWTLSVGA to GRWVST, the amyloid nucleation score falls from 9.548 ± 0.035 to 1.29 ± 0.43.

KTSWFGYSWNDHHSIRHQCS and HEEVLLHGLVCKLHRMKR are within error of each other in amyloid nucleation score: 0.84 ± 0.43 for the first, 0.474 ± 0.26 for the second.

Going from FKQLIMGYS to SIMGRIKIAIHVLRS, the amyloid nucleation score rises from 3.24 ± 0.075 to 4.12 ± 0.091.

QGLSCEGILWLVEYSQTFFG and YHEVFLTLSIEWRMMLWVG are within error of each other in amyloid nucleation score: -1.27 ± 1.1 for the first, -0.318 ± 0.28 for the second.

Going from VNFGI to WANFWSGWKVTLVCCCKIVA, the amyloid nucleation score rises from -0.948 ± 0.64 to 3.7 ± 0.078.

SYRLYFFMGFDMLYLCMG and NQFLMVWSDIDVRKDVRFLH are within error of each other in amyloid nucleation score: -0.177 ± 0.79 for the first, -0.977 ± 0.48 for the second.

FNHYQ and LMPGMVGDRRGCNDK are within error of each other in amyloid nucleation score: 0.419 ± 0.36 for the first, 0.49 ± 0.26 for the second.

TICWHGFNR and DERSLLDLHYCR are within error of each other in amyloid nucleation score: 0.119 ± 0.76 for the first, 0.912 ± 0.43 for the second.

Going from IEKSMLVVLGINVRVSMGVG to RCPGCDE, the amyloid nucleation score rises from 0.175 ± 0.24 to 1.26 ± 0.25.

First: AFRFWFHGSMLVAHLSSWYY
Second: VRDNHNRSGQVRGGADLN
The amyloid nucleation score of the first is higher: 2.88 ± 0.083 for the first, 0.822 ± 0.34 for the second.

EVANGKFCNFGSLYDLMWWE and GDFSFCTHLLSYNLRGWPVV are within error of each other in amyloid nucleation score: -0.348 ± 0.76 for the first, 0.192 ± 0.74 for the second.

WVYDVQSCIMTPMSGYWFIL and YMDNCSYRYSVTESTRNTAG are within error of each other in amyloid nucleation score: -0.476 ± 0.36 for the first, 0.17 ± 0.74 for the second.

First: DSDSFYIMPMVHMPNNFHRD
Second: HLRQWDEYLETGCVN
The amyloid nucleation score of the first is lower: -1.41 ± 1.1 for the first, 0.32 ± 0.33 for the second.

LGSCHAMRLIEDGSGMEWMF and FGMNDRRH are within error of each other in amyloid nucleation score: 0.645 ± 0.37 for the first, -0.381 ± 0.79 for the second.

ASMCIGRWIFGEYYSFNMFI and RVKRRMSFVVAVAQVMGLVG are within error of each other in amyloid nucleation score: 0.775 ± 0.38 for the first, 0.475 ± 0.23 for the second.

Going from ADSVLYNCVCRFSSVPQVLR to ASYLCFPNNVVLSLHNHVFS, the amyloid nucleation score rises from -0.263 ± 0.31 to 4.834 ± 0.048.

First: DIRIL
Second: ARFSKHHLTKVLFGKDYQAP
The amyloid nucleation score of the first is lower: -0.635 ± 0.44 for the first, 0.235 ± 0.34 for the second.

IRWAQTFILLFVCSSARPTQ and FYMPLLMYVVAVRPMSGNLV are within error of each other in amyloid nucleation score: 0.712 ± 0.36 for the first, -0.22 ± 1 for the second.

Going from IMSMGGVLMFWS to LQHSTRLNWD, the amyloid nucleation score falls from 3.66 ± 0.12 to 0.954 ± 0.51.

First: LRQRY
Second: WDGNYSSKVCFTQLRMSWCL
The amyloid nucleation score of the first is lower: -0.233 ± 0.64 for the first, 1.75 ± 0.27 for the second.

Going from KFSKGSPGWWHQGSLCMVAM to SDTVYLIFFSLAYNYVKRVT, the amyloid nucleation score falls from 1.51 ± 0.58 to -1.74 ± 0.41.

TAHYDVGC and TGCNFHGRRFRCGYNGLGNP are within error of each other in amyloid nucleation score: -0.283 ± 1 for the first, -0.59 ± 0.37 for the second.

Compared with VYLDWFYWPDTIHG, DMQGRVVRR is lower in amyloid nucleation score: 4.87 ± 0.075 for the first, -0.855 ± 0.61 for the second.

MASVMLQCHGCPLGKGTARA and WFDGDQDSNRQTVPIPQLPP are within error of each other in amyloid nucleation score: 0.879 ± 0.41 for the first, 0.549 ± 0.45 for the second.

SIGWRPPCLVFDVGWRREGQ and TSLTQDLEMVLSFNFCMGLA are within error of each other in amyloid nucleation score: -0.109 ± 0.42 for the first, -0.158 ± 0.44 for the second.

First: CRLFQSQIYERYTSRCVYRF
Second: VHAVGHNSIGTRIRWVNGAA
The amyloid nucleation score of the first is lower: -1.05 ± 0.79 for the first, 0.504 ± 0.33 for the second.

Compared with PRWAKYYVLSRC, DDFRGIAGIWWRG is higher in amyloid nucleation score: -1.6 ± 1.1 for the first, 0.785 ± 0.51 for the second.

Going from LLERSRSSIMCTTNRSLELI to TVVSVGVVRVHATLRVKESG, the amyloid nucleation score rises from 3.18 ± 0.055 to 5.661 ± 0.056.

Compared with QFILFCIPTPNQ, QLFAVQSLCRKRRQLRWLPT is lower in amyloid nucleation score: 4.93 ± 0.08 for the first, 0.463 ± 0.64 for the second.

Compared with SNVYYRVC, WDGYGVYFQTQAKVR is lower in amyloid nucleation score: 4.72 ± 0.084 for the first, 0.102 ± 0.63 for the second.

Compared with DWCPTCIWRICSHVTQSWSS, SWTCHSFYFSDSFRHGYR is lower in amyloid nucleation score: 6.325 ± 0.055 for the first, 2.63 ± 0.069 for the second.

FINSHFHYEECPIMGKQSVL and SDSKG are within error of each other in amyloid nucleation score: 1.63 ± 0.53 for the first, 0.113 ± 1.1 for the second.

Going from YQHDT to SGFCQGGNSSRYMSII, the amyloid nucleation score rises from 0.871 ± 0.27 to 1.9 ± 0.27.

KGAFANL and MRLTTGINF are within error of each other in amyloid nucleation score: -1.63 ± 0.55 for the first, -1.14 ± 0.76 for the second.

YNMGNSGLGGTRWEIICFAI and AGDTLWNGGMVEWFVWRLPG are within error of each other in amyloid nucleation score: -1.02 ± 0.5 for the first, 0.178 ± 0.74 for the second.

Compared with VRCRMFMYVMSDLSFMS, MYTVGWHSTQCFLEDFGRTL is lower in amyloid nucleation score: 3.6 ± 0.047 for the first, 3.13 ± 0.075 for the second.

For MMYISSGVFWTE, the amyloid nucleation score was “inactive”.
For CFVRTVFL, the amyloid nucleation score was “inactive”.
With WVCHVNMRSEYMDIIMEGTN the amyloid nucleation score was “inactive”.
In the case of TTQDHFFSL, the amyloid nucleation score is reported as “inactive”.
For VWDHVAGARALTWLRMLLKQ, the amyloid nucleation score was “inactive”.
For LLAIVVILKSTAPGKRY, the amyloid nucleation score was “inactive”.
For GRMLKFLCWRWVVLMSGAPG, the amyloid nucleation score was “inactive”.
For NNWVAAHSLS, the amyloid nucleation score was “inactive”.
With RYMRFYRLAGPAVLRFHLR the amyloid nucleation score was “inactive”.
